Assay results reported in CN118638216A.

Target: 新型冠状病毒SARS-CoV-2和SARS-CoV以及动物来源的SARS-like冠状病毒S1
Test: ELISA, S1 proteins coated at 2 μg/mL, antibody titrated from 10 μg/mL

B1: 全人源广谱抗sarbecovirus和/或新冠突变株的抗体(VSCM8-83) (antibody, V domains shown)
VH: EVQLVEFGGGLVQPGGSLRLSCAASGFAVSSNYMSWVRQAPGKGLEWVSVIYGDGTTYYGDSVKGRFTISRHNSKNTLYLQMNSLRTEDTAVYYCARIVSEAFDLWGQGTMVTVSS
VL: DIQMTQSPSTLSASVGDRVTITCRASQSIGRWLAWYQQKPGKAPKLLIYMASILESGVPSRFSGSGSATEFTLTISSLQPDDFATYYCQQYNGYSQYTFGQGTKLEIKR
EC50: 0.0397 to 0.0749 µg/mL
